Test results from patent US6294333, “Fluorescent intensity assay for protein or peptide binding to nucleic acids” (Ingeneus Corp.).

T1: c-JUN mutant 14 DNA-binding domain peptide (K277I, C278D) (Homo sapiens, UniProt P05412 SEQ:1-132)
T1 chain: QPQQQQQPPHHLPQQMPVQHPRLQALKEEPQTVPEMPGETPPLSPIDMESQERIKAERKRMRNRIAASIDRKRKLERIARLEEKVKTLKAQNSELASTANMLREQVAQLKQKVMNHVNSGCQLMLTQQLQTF

B1: JD13F/14F (dsDNA)
DNA 1: CCGGCCTAAATAGGGCTTTT
DNA 2: AAAAGCCCTATTTAGGCCGG
B2: JD3F/4F (dsDNA)
DNA 1: GTGTCTTACTCATGCTT
DNA 2: AAGCATGAGTAAGACAC
B3: JD1F/2F (dsDNA)
DNA 1: GTGTCTGACTCATGCTT
DNA 2: AAGCATGAGTCAGACAC

Legend:
[1] = biological target: Sp1 full length (UniProt P08047 P08047:2-785); assay: fluorescence quenching; 200 ng Sp1, no decrease; details: tags: Promega; label: 5'-fluorescein both strands
Sp1 full length, sequence (P08047 2-785, one chain of several): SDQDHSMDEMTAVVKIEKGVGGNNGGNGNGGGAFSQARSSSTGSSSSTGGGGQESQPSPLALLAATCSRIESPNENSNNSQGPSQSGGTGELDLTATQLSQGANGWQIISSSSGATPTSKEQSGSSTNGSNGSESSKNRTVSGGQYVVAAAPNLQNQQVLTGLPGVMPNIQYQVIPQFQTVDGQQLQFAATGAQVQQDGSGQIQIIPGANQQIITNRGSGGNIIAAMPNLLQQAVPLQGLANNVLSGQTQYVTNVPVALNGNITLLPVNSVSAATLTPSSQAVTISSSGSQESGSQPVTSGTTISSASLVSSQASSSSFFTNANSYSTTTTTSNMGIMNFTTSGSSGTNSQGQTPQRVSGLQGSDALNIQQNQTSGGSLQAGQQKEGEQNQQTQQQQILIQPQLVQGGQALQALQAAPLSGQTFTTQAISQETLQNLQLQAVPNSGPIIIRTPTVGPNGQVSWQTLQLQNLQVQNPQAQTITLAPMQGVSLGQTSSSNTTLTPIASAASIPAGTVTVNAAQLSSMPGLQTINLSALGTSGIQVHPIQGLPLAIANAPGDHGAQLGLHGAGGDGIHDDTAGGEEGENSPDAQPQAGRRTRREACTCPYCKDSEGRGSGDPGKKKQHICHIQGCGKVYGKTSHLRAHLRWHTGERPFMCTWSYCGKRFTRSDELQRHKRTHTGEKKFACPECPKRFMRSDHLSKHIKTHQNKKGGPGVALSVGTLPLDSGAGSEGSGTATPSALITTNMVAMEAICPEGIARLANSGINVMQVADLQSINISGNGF
Method: The Sp1:DNA binding reaction mixture (30 µl) contained the following: 25 mM HEPES, pH 7.8, 100mM KCl, 100 µM ZnSO_4, 1 mM DTT, 20% (v/v) glycerol, 0.05 µg/µl BSA, 0–200 ng pure Sp1 protein (Promega) and 0.1 pmole 5'-fluorescein labeled dsDNA oligonucleotide. The reaction mixes were incubated at 0° C. for […], placed into a quartz cuvette, irradiated with an argon ion laser beam having a wavelength of 488 nm and monitored for fluorescent emission.
When 200 ng Sp1 was reacted with 0.1 pmole mutant JD13F/14F, no decrease in fluorescent intensity was observed (FIG. 4B), indicating non-binding of protein to the mutated DNA sequence. These studies confirmed the specificity of the laser detection assay for a completely different class of DNA-binding proteins.

[2] = biological target: T1, c-JUN mutant 14 DNA-binding domain …; assay: fluorescence quenching; no decrease at 200-400 ng; details: chain copies: 2 (inferred); label: 5'-fluorescein both strands
Method: (§1) The c-JUN :DNA binding reaction mixture (30 μl) contained the following: 9.25 mM HEPES, pH 7.9, 2.23 mM MgCl_2, 0.03 mM EDTA, 50 mM NaCl, 5.0 mM DTT, 3.75% (v/v) glycerol, 0.15 μg/μl bovine serum albumin (BSA), 0–2.0 μg pure c-JUN protein (Promega, Madison, Wis.) or 0–400 ng pure c-JUN peptide, and 0.075 pmole 5'-fluorescein labeled dsDNA oligonucleotide. When full-length c-JUN was used, 3 ng/μl poly(dI)-poly(dC) was included in the reaction mix, and added before the addition of protein and fluorescein-labeled DNA. The examples in FIGS. 1B and 1D contained 50 mM KCl in lieu of 50 mM NaCl. Wild-type and mutant c-JUN DNA-binding domain peptides were generously supplied by Dr. Dirk Bohmann (European Molecular Biology Laboratory, Heidelberg, Germany). The reaction mixtures were incubated at 21° C. for 30 minutes, placed into a quartz cuvette, irradiated with an argon ion laser beam having a wavelength of 488 nm and monitored for fluorescent emission.
The specificity of the laser binding assay was further tested by reacting a mutant c-JUN DNA-binding domain peptide with wild-type or mutant DNA. Specific mutations in the basic domain of c-JUN abolish DNA binding without affecting dimerization, whereas specific mutations in the leucine zipper prevent both dimerization and DNA binding.

[3] = biological target: c-JUN DNA-binding domain peptide (wild-type) (Homo sapiens, UniProt P05412 SEQ:1-132); assay: fluorescence quenching; minor increase in intensity at 20-200 ng; details: chain copies: 2 (inferred); label: 5'-fluorescein both strands
Method: as §1

[4] = biological target: c-JUN full length (Homo sapiens, UniProt P05412 P05412:1-331); assay: fluorescence quenching; no decrease in NaCl or KCl, 21 C; details: tags: Promega; 340 aa; chain copies: 2 (stated homodimer); label: 5'-fluorescein both strands
Method: as §1
These mutant DNA binding studies confirm the specificity of both the c-JUN:wild-type DNA binding conditions and the laser detection method.

| Binder | binding result [1] | binding result [2] | binding result [3] | binding result [4] |
| --- | --- | --- | --- | --- |
| B1 | no binding | – | – | – |
| B2 | – | no binding | no binding | no binding |
| B3 | – | no binding | – | – |
